Data reported in US20120129237A1.

Target: LDLR (LDL receptor) of HepG2 cells (UniProt P01130)
Assay: cell-based or functional assay

LDL uptake assay (DiI-LDL, HepG2 cells) (% more function than wildtype PCSK9): 50
Substance: PCSK9c polypeptide (novel PCSK9 variant) (from UniProt Q8NBP7 175-692) (enzyme)
